Assays:
Flag-HER3 (T355I) = molecular target: T1, Flag-HER3 (T355I) (human, UniProt P21860 1-1342); experiment: flow cytometry on HER2-overexpressing and HER3-stably expressing MDA-MB-231 cells, 0.1 to 100 nM
T1 construct: The entry already carries the mutation; Stably expressed in MDA-MB-231 cells, with or without HER2 overexpression; also called mutant-type HER3 (T355I)
Protocol: (§1) Wild-type and various kinds of mutant-type HER3-introduced MDA-MB-231 cells were cultured with RPMI1640 medium (available from Thermo Fisher […] K.K.) containing 10% FBS (available from Hyclone Laboratories, Inc). The cells were separated from the culture plate with TrypLE® Express Enzyme (available from Thermo Fisher […] K.K.), to measure the number of living cells by trypan blue treatment. The same number of living cells were added to a 96-well U-bottom plate, then the cells were precipitated by centrifugation, and the medium was replaced with Stain Buffer (available from Becton, Dickinson and Company). […] The cells were allowed to react on ice for 60 minutes and then washed with Stain Buffer. Further, 100 μL of Stain Buffer or a secondary antibody (Goat anti-Human IgG (H+L) Cross-Adsorbed Secondary Antibody, Alexa Fluor647, Thermo Fisher […] K.K., #A-21445) diluted to 10 μg/mL was added thereto, and the cells were suspended therein. After the cells were allowed to react in the dark on ice for 60 minutes and then washed with Stain Buffer. After the cells were suspended in 100 μL of Stain Buffer, an equal amount of 4% paraformaldehyde phosphate buffer (Wako Pure Chemical Industries, Ltd.) was added thereto, and the mixture was reacted in the dark on ice for 20 minutes. After washing with a Stain Buffer, fluorescence signals were measured using Attune NxT Flow Cytometer (available from Thermo Fisher […] K.K.), and the measurement results were analyzed using FlowJo software (Version 10.5.0, available from Becton, Dickinson and Company).

Flag-HER3 (V104L) = molecular target: T2, Flag-HER3 (V104L) (human, UniProt P21860 1-1342); experiment: as above
T2 construct: The entry already carries the mutation; Stably expressed in MDA-MB-231 cells, with or without HER2 overexpression; also called mutant-type HER3 (V104L)
Protocol: as §1

Flag-HER3 (V104M) = molecular target: T3, Flag-HER3 (V104M) (human, UniProt P21860 1-1342); experiment: as above
T3 construct: The entry already carries the mutation; Stably expressed in MDA-MB-231 cells, with or without HER2 overexpression; also called mutant-type HER3 (V104M)
Protocol: as §1

Flag-HER3 (A232V) = molecular target: T4, Flag-HER3 (A232V) (human, UniProt P21860 1-1342); experiment: as above
T4 construct: The entry already carries the mutation; Stably expressed in MDA-MB-231 cells, with or without HER2 overexpression; also called mutant-type HER3 (A232V)
Protocol: as §1

Flag-HER3 (P262H) = molecular target: T5, Flag-HER3 (P262H) (human, UniProt P21860 1-1342); experiment: as above
T5 construct: The entry already carries the mutation; Stably expressed in MDA-MB-231 cells, with or without HER2 overexpression; also called mutant-type HER3 (P262H)
Protocol: as §1

Flag-HER3 (G284R) = molecular target: T6, Flag-HER3 (G284R) (human, UniProt P21860 1-1342); experiment: as above
T6 construct: The entry already carries the mutation; Stably expressed in MDA-MB-231 cells, with or without HER2 overexpression; also called mutant-type HER3 (G284R)
Protocol: as §1

Flag-HER3 (D297Y) = molecular target: T7, Flag-HER3 (D297Y) (human, UniProt P21860 1-1342); experiment: as above
T7 construct: The entry already carries the mutation; Stably expressed in MDA-MB-231 cells, with or without HER2 overexpression; also called mutant-type HER3 (D297Y)
Protocol: as §1

Flag-HER3 (G325R) = molecular target: T8, Flag-HER3 (G325R) (human, UniProt P21860 1-1342); experiment: as above
T8 construct: The entry already carries the mutation; Stably expressed in MDA-MB-231 cells, with or without HER2 overexpression; also called mutant-type HER3 (G325R)
Protocol: as §1

Flag-HER3 (S846I) = molecular target: T9, Flag-HER3 (S846I) (human, UniProt P21860 1-1342); experiment: flow cytometry on HER3-stably expressing MDA-MB-231 cells without HER2 overexpression, 0.1 to 100 nM
T9 construct: The entry already carries the mutation; Stably expressed in MDA-MB-231 cells, with or without HER2 overexpression; also called mutant-type HER3 (S846I)
Protocol: as §1

Flag-HER3 (E928G) = molecular target: T10, Flag-HER3 (E928G) (human, UniProt P21860 1-1342); experiment: as above
T10 construct: The entry already carries the mutation; Stably expressed in MDA-MB-231 cells, with or without HER2 overexpression; also called mutant-type HER3 (E928G)
Protocol: as §1

Flag-HER3 (WT) = molecular target: T11, Flag-HER3 (WT) (human, UniProt P21860 1-1342); experiment: as above
T11 construct: Flag-tagged full-length HER3 stably expressed in MDA-MB-231 cells, with or without HER2 overexpression; also called wild-type HER3
Protocol: as §1

Flag-HER3 (Q809R) = molecular target: T12, Flag-HER3 (Q809R) (human, UniProt P21860 1-1342); experiment: flow cytometry on HER2-overexpressing and HER3-stably expressing MDA-MB-231 cells, same method as Example 3
T12 construct: The entry already carries the mutation; Stably expressed in HER2-overexpressing MDA-MB-231 cells; also called mutant-type HER3 (Q809R)
Protocol: as §1, with “After the cells were suspended in 100 μL of Stain Buffer, an equal amount of 4% paraformaldehyde phosphate buffer (Wako Pure Chemical Industries, Ltd.) was added thereto, and the mixture was reacted in the dark on ice for 20 minutes.” left out

Measured: binding result

B1: HER3-ADC (1) (antibody, human IgG1, kappa, V domains shown)
VH: QVQLQQWGAGLLKPSETLSLTCAVYGGSFSGYYWSWIRQPPGKGLEWIGEINHSGSTNYNPSLKSRVTISVETSKNQFSLKLSSVTAADTAVYYCARDKWTWYFDLWGRGTLVTVSS
VL: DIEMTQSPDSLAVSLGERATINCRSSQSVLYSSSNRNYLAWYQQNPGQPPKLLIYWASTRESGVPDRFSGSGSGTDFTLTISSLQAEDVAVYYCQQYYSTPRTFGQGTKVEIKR
modifications: drug-linker (exatecan derivative) conjugated via a thioether bond to cysteine thiols formed at interchain disulfide sites; drug-linker (exatecan derivative) conjugated via a thioether bond to cysteine thiols formed at interchain disulfide sites; average number of conjugated drug molecules per antibody molecule in the range of 7 to 8
notes: also called anti-HER3 antibody-drug conjugate; conjugate of HER3-Ab (1)
binds: all assays above

Reference: patent US20220072144A1 (published 2022)
